Patent publication US20240190962A1 (IMMUNOWAKE, published 2024)
Positions count from the first letter of the chain named. Names may count otherwise. Where two headings read alike, the source gives them in different places.

T1: human IL-2 receptor (IL-2Rα, IL-2Rβ, IL-2Rγ) (human, UniProt P01589 22-272; P14784 27-551; P31785 23-369)
T1 sequence (looked up) 1: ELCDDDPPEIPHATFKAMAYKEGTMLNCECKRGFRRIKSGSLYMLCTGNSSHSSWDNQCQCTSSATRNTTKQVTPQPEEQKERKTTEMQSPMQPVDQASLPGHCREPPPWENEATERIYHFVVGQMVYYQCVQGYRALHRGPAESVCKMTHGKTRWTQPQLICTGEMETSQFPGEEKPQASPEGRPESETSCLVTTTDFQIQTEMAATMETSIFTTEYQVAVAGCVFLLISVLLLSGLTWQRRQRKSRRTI
T1 sequence (looked up) 2: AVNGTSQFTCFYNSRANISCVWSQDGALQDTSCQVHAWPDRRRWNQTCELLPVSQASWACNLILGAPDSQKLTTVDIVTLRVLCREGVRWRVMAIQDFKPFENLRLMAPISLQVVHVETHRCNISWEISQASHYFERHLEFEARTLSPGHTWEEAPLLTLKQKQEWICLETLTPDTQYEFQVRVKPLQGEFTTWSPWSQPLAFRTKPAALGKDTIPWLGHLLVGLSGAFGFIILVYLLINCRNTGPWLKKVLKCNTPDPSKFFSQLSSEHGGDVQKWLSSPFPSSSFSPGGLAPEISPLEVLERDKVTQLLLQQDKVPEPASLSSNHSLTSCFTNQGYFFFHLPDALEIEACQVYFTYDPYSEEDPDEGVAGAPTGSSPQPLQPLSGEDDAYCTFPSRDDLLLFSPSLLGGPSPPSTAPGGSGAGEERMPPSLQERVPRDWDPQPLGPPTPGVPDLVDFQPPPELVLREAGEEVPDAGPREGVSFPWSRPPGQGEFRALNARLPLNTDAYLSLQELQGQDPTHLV
T1 sequence (looked up) 3: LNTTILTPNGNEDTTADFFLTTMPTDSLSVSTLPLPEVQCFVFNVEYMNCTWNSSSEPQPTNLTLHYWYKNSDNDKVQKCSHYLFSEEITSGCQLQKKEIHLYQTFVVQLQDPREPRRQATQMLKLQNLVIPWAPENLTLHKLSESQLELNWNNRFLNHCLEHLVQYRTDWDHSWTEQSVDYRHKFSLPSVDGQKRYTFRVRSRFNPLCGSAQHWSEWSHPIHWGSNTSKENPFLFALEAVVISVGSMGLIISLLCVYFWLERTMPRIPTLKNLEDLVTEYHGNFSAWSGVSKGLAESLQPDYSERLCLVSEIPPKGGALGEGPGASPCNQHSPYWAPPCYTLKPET

B1: IL-2 mutant-Fc-CD3 Ab (other, not shown: a dimerising Fc or GST)
light: EIVMTQSPGTLSLSPGESATLSCSASLSVSFMHWFQQKPGHAPRLLIYRTSNLASGVPDRFSGSGSGTDFTLTISRLEPEDFAVYYCQQRSSDPPTFGQGTRLEIKRTVAAPSVFIFPPSDEQLKSGTASVVCLLNNFYPREAKVQWKVDNALQSGNSQESVTEQDSKDSTYSLSSTLTLSKADYEKHKVYACEVTHQGLSSPVTKSFNRGEC
heavy: EVQLVESGGGLVQPGRSLRLSCTASGFTFSYFWMNWVRQAPGKGLEWVGEIRLRSDNYATHYAESVKGRFTISRDDSKSIAYLQMNSLKTEDTALYYCTRDWEFTYWGQGTTVTVSSAS
chain: APTSSSTKKTQLQLEHLLLDLQMILNGINNYKNPKLTDMLTFEFYMPKKATELKHLQCLERELKPLEEVLNLAQSKNFHLRPRDLISNINVIVLELKGSETTFMCEYADETATIVEFLNRWITFCQSIISTLT
B2: Fab-IL-2 mutant-Fc-CD3 Ab (other)
light: B1 light
heavy 1: EVQLVESGGGLVQPGRSLRLSCTASGFTFSYFWMNWVRQAPGKGLEWVGEIRLRSDNYATHYAESVKGRFTISRDDSKSIAYLQMNSLKTEDTALYYCTRDWEFTYWGQGTTVTVSSASTKGPSVFPLAPSSKSTSGGTAALGCLVKDYFPEPVTVSWNSGALTSGVHTFPAVLQSSGLYSLSSVVTVPSSSLGTQTYICNVNHKPSNTKVDKKVEPKSCDKTHTCPPCPAPEKKGGPSVFLFPPKPKDTLMISRTPEVTCVVVDVSHEDPEVKFNWYVDGVEVHNAKTKPREEQYNSTYRVVSVLTVLHQDWLNGKEYKCKVSNKALPAPIEKTISKAKGQPREPQVYVLPPSREEMTKNQVSLLCLVKGFYPSDIAVEWESNGQPENRYMTWPPVLDSDGSFFLYSKLTVDKSRWQQGNVFSCSVMHEALHNHYTQKSLSLSPGK
heavy 2: EVQLVESGGGLVQPGRSLRLSCTASGFTFSYFWMNWVRQAPGKGLEWVGEIRLRSDNYATHYAESVKGRFTISRDDSKSIAYLQMNSLKTEDTALYYCTRDWEFTYWGQGTTVTVSSASTKGPSVFPLAPSSKSTSGGTAALGCLVKDYFPEPVTVSWNSGALTSGVHTFPAVLQSSGLYSLSSVVTVPSSSLGTQTYICNVNHKPSNTKVDKKVEPKSCDKPAPTSSSTKKTQLQLEHLLLDLQMILNGINNYKNPKLTDMLTFEFYMPKKATELKHLQCLERELKPLEEVLNLAQSKNFHLRPRDLISNINVIVLELKGSETTFMCEYADETATIVEFLNRWITFCQSIISTLTDKTHTCPPCPAPEDEGGPSVFLFPPKPKDTLMISRTPEVTCVVVDVSHEDPEVKFNWYVDGVEVHNAKTKPREEQYNSTYRVVSVLTVLHQDWLNGKEYKCKVSNKALPAPIEKTISKAKGQPREPQVYVYPPSREEMTKNQVSLTCLVKGFYPSDIAVEWESNGQPENNYKTTPPVLDEDGSFALVSKLTVDKSRWQQGNVFSCSVMHEALHNHYTQKSLSLSPGK
B3: anti-PD-1 antibody nivolumab (Opdivo) (antibody, human IgG4 S228P, kappa, V domains shown)
VH: QVQLVESGGGVVQPGRSLRLDCKASGITFSNSGMHWVRQAPGKGLEWVAVIWYDGSKRYYADSVKGRFTISRDNSKNTLFLQMNSLRAEDTAVYYCATNDDYWGQGTLVTVSS
VL: EIVLTQSPATLSLSPGERATLSCRASQSVSSYLAWYQQKPGQAPRLLIYDASNRATGIPARFSGSGSGTDFTLTISSLEPEDFAVYYCQQSSNWPRTFGQGTKVEIKR
B4: Fab-IL-23(WT)-Fc-CD4 Ab (other)
light: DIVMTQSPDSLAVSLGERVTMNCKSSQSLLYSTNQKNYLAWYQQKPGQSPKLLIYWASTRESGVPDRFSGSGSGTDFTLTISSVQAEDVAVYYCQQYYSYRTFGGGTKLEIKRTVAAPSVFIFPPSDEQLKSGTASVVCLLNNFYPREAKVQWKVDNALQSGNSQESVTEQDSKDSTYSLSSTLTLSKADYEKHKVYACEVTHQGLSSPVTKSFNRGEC
heavy 1: QVQLQQSGPEVVKPGASVKMSCKASGYTFTSYVIHWVRQKPGQGLDWIGYINPYNDGTDYDEKFKGKATLTSDTSTSTAYMELSSLRSEDTAVYYCAREKDNYATGAWFAYWGQGTLVTVSSASTKGPSVFPLAPSSKSTSGGTAALGCLVKDYFPEPVTVSWNSGALTSGVHTFPAVLQSSGLYSLSSVVTVPSSSLGTQTYICNVNHKPSNTKVDKKVEPKSCDKTHTCPPCPAPEKKGGPSVFLFPPKPKDTLMISRTPEVTCVVVDVSHEDPEVKFNWYVDGVEVHNAKTKPREEQYNSTYRVVSVLTVLHQDWLNGKEYKCKVSNKALPAPIEKTISKAKGQPREPQVYVLPPSREEMTKNQVSLLCLVKGFYPSDIAVEWESNGQPENRYMTWPPVLDSDGSFFLYSKLTVDKSRWQQGNVFSCSVMHEALHNHYTQKSLSLSPGK
heavy 2: QVQLQQSGPEVVKPGASVKMSCKASGYTFTSYVIHWVRQKPGQGLDWIGYINPYNDGTDYDEKFKGKATLTSDTSTSTAYMELSSLRSEDTAVYYCAREKDNYATGAWFAYWGQGTLVTVSSASTKGPSVFPLAPSSKSTSGGTAALGCLVKDYFPEPVTVSWNSGALTSGVHTFPAVLQSSGLYSLSSVVTVPSSSLGTQTYICNVNHKPSNTKVDKKVEPKSCDKPGSGIWELKKDVYVVELDWYPDAPGEMVVLTCDTPEEDGITWTLDQSSEVLGSGKTLTIQVKEFGDAGQYTCHKGGEVLSHSLLLLHKKEDGIWSTDILKDQKEPKNKTFLRCEAKNYSGRFTCWWLTTISTDLTFSVKSSRGSSDPQGVTCGAATLSAERVRGDNKEYEYSVECQEDSACPAAEESLPIEVMVDAVHKLKYENYTSSFFIRDIIKPDPPKNLQLKPLKNSRQVEVSWEYPDTWSTPHSYFSLTFCVQVQGKSKREKKDRVFTDKTSATVICRKNASISVRAQDRYYSSSWSEWASVPCSGGGGSGGGGSGGGGSGGGGSGRAVPGGSSPAWTQCQQLSQKLCTLAWSAHPLVGHMDLREEGDEETTNDVPHIQCGDGCDPQGLRDNSQFCLQRIHQGLIFYEKLLGSDIFTGEPSLLPDSPVGQLHASLLGLSQLLQPEGHHWETQQIPSLSPSQPWQRLLLRFKILRSLQAFVAVAARVFAHGAATLSPDKTHTCPPCPAPEDEGGPSVFLFPPKPKDTLMISRTPEVTCVVVDVSHEDPEVKFNWYVDGVEVHNAKTKPREEQYNSTYRVVSVLTVLHQDWLNGKEYKCKVSNKALPAPIEKTISKAKGQPREPQVYVYPPSREEMTKNQVSLTCLVKGFYPSDIAVEWESNGQPENNYKTTPPVLDEDGSFALVSKLTVDKSRWQQGNVFSCSVMHEALHNHYTQKSLSLSPGK
notes: copies: 2 + 1 + 1
B5: Fab-IL-23(F60A)-Fc-CD4 Ab (other)
light: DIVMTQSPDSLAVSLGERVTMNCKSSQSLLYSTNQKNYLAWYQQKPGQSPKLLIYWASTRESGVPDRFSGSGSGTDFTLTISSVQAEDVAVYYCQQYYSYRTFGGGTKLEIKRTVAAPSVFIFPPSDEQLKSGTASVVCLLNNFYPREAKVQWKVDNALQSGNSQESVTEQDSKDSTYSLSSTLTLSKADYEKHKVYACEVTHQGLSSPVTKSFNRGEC
heavy 1: B4 heavy 1
heavy 2: B4 heavy 2 with F291A
notes: copies: 2 + 1 + 1
B6: Fab-IL-23(E59A)-Fc-CD4 Ab (other)
light: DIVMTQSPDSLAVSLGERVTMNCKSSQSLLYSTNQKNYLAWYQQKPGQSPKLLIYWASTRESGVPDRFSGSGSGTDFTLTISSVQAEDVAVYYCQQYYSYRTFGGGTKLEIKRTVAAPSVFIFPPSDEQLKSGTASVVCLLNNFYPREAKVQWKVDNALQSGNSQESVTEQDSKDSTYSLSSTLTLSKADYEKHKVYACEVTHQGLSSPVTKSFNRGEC
heavy 1: B4 heavy 1
heavy 2: B4 heavy 2 with E290A
notes: copies: 2 + 1 + 1
B7: Fab-IL-23(E59A/F60A)-Fc-CD4 Ab (other)
light: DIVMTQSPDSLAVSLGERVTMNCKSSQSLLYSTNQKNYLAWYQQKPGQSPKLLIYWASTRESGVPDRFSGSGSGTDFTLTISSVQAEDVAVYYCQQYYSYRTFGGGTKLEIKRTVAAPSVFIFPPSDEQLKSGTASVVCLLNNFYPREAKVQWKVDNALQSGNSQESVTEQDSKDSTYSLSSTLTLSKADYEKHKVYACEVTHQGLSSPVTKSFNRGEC
heavy 1: B4 heavy 1
heavy 2: B4 heavy 2 with E290A, F291A
B8: anti-CD3 antibody (made in-house) (antibody, V domains shown)
VH: EVQLVESGGGLVQPGRSLRLSCTASGFTFSYFWMNWVRQAPGKGLEWVGEIRLRSDNYATHYAESVKGRFTISRDDSKSIAYLQMNSLKTEDTALYYCTRDWEFTYWGQGTTVTVSS
VL: EIVMTQSPGTLSLSPGESATLSCSASLSVSFMHWFQQKPGHAPRLLIYRTSNLASGVPDRFSGSGSGTDFTLTISRLEPEDFAVYYCQQRSSDPPTFGQGTRLEIKR

Key:
[1] = target: T1, human IL-2 receptor (IL-2Rα, IL-2Rβ, …); assay: cell-based or functional assay
[2] = target: T1, human IL-2 receptor (IL-2Rα, IL-2Rβ, …); assay: cell-based or functional assay; remark: listed apart in the source
CD8 on CD8+ T cells = target: T2, CD8 on CD8+ T cells (UniProt P01732 22-235); assay: FACS
T2 construct: whole, on cells

[3] = target: IL-23 receptor complex (IL-12Rβ1, IL-23R) (UniProt P42701 24-662; Q5VWK5 24-629, limits assumed); assay: cell-based or functional assay
Chain of IL-23 receptor complex (IL-12Rβ1, IL-23R) (Q5VWK5 24-629 limits assumed, chain 2 of 2, other chains not shown): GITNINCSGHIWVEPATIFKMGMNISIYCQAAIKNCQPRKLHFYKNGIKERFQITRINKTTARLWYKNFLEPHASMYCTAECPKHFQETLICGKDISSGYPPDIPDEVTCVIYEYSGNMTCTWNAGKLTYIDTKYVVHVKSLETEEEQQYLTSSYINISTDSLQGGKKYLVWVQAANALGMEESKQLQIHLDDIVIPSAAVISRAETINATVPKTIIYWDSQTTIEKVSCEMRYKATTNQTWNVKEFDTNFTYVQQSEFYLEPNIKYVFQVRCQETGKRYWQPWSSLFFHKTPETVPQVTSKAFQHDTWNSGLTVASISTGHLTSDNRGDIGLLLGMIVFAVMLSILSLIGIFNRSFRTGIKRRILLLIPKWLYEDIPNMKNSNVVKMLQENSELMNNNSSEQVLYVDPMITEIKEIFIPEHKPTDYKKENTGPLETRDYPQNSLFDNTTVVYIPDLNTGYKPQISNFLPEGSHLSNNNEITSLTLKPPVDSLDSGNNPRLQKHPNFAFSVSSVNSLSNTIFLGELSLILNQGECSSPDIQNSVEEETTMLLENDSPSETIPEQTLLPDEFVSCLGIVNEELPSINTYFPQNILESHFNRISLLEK

T2 sequence (P01732 22-235): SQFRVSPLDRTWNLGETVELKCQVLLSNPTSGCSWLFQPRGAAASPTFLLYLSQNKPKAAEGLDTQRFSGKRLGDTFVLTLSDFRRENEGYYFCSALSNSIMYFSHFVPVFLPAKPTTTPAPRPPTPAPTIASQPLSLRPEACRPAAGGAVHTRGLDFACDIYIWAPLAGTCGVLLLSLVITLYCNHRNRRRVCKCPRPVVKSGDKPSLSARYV

| Binder | Percent IL-2 signal transduction (HEK-IL-2 reporter assay) [1] [%] | Percent T-cell proliferation (PBMC proliferation assay) [1] [%] | Percent IL-2 signal transduction (HEK-IL-2 reporter assay) [2] [%] | Percent IL-2 signal transduction (HEK-PD-1-IL-2 reporter assay) [2] [%] | binding result (CD8 on CD8+ T cells) | IL-23 biological activity (IFN-γ release), CD4+ T cells [3] [%] | IL-23 biological activity (IFN-γ release), CD8+ T cells [3] [%] |
| --- | --- | --- | --- | --- | --- | --- | --- |
| B1 | 11 | 39 |  |  |  |  |  |
| B2 | 2.5 | 45 |  |  |  |  |  |
| B3 |  |  | 0 | 0 |  |  |  |
| B4 |  |  |  |  | no binding | 34 | 21 |
| B5 |  |  |  |  | no binding | 29 | 1.5 |
| B6 |  |  |  |  | no binding | 24 | 2 |
| B7 |  |  |  |  | no binding | 6.8 | 0 |
| B8 | 0 | 0 |  |  |  |  |  |
